Values joined by “and” are separate entries in the source; they are usually repeats but may differ in a detail not shown here. Identical values can stand only once.

B1: unnamed (protein)
chain 1: QVQLVQSGGGLVQAGGSLRLSCAASGGTFATSPMGWLRQAPGKGTEFVAAISPSGGDRIYADSVKGRFTISRDNAGYFIYLQMNSLKPEDTAVYYCAVRRRFDGTSYYTGDYDSWGQGTLVTVSS
chain 2: EIVLTQSPGTLSLSPGERATLSCRASQSVSSSYLAWYQQKPGQAPRLLIYDASSRATGIPDRFSGSGSGTDFTLTISRLEPEDFAVYYCQQYSYSPVTFGQGTKVEIK
B2: unnamed (protein)
chain 1: QVTLRESGPALVKPTQTLTLTCTFSGFSLSTAGMSVGWIRQPPGKALEWLADIWWDDKKHYNPSLKDRLTISKDTSKNQVVLKVTNMDPADTATYYCARDMIFNFYFDVWGQGTTVTVSS
chain 2: DIQMTQSPSTLSASVGDRVTITCSASSRVGYMHWYQQKPGKAPKLLIYDTSKLASGVPSRFSGSGSGTEFTLTISSLQPDDFATYYCFQGSGYPFTFGGGTKVEIK
B3: unnamed (protein)
chain 1: QVTLRESGPALVKPTQTLTLTCTVSGFSLTSYSVHWVRQPPGKGLEWLGVIWASGGTDYNSALMSRLSISKDTSRNQVVLTMTNMDPVDTATYYCARDPPSSLLRLDYWGRGTPVTVSS
chain 2: DIVMTQSPDSLAVSLGERATINCKSSQSLLNSGNQKNYLAWYQQKPGQPPKLLIYGASTRESGVPDRFSGSGSGTDFTLTISSLQAEDVAVYYCQNVHSFPFTFGGGTKLEIK
B4: unnamed (protein)
chain 1: QVQLVQSGAEVKKPGASVKISCKASGYSFTAYYIHWVKQAPGQGLEWIGYISNYNRATNYNQKFKGRVTFTTDTSTSTAYMELRSLRSDDTAVYYCARDYDYDVGMDYWGQGTLVTVSS
chain 2: DIVMTQSPDSLAVSLGERATISCRASESVDNYGISFMKWFQQKPGQPPKLLIYAASNQGSGVPDRFSGSGSGTDFTLTISSLQAEDVAVYYCQQSKEVPWTFGGGTKVEIK
B5: unnamed (protein)
chain 1: EVQLVESGGDLVQPGRSLRLSCAASGFIFSNYGMSWVRQAPGKGLEWVATISSASTYSYYPDSVKGRFTISRDNAKNSLYLQMNSLRVEDTALYYCGRHSDGNFAFGYWGQGTLVTVSS
chain 2: DVLMTQSPLSLPVTPGEPASISCRSSRNIVHINGDTYLEWYLQKPGQSPQLLIYKVSNRFSGVPDRFSGSGSGTDFTLKISRVEAEDVGVYYCFQGSLLPWTFGQGTKVEIK
B6: unnamed (protein)
chain 1: EVQLQQSGPDLVKPGASVKISCKASGYSFTGYYMHWVKQSPGKGLEWIGRINPNNGVTLYNQKFKDKATLTVDKSSTTAYMELRSLTSEDSAVYYCARSTMITNYVMDYWGQGTSVTVSS
chain 2: SIVMTQTPTSLLVSAGDRVTITCKASQSVSNDVAWYQQKPGQSPKLLISYTSSRYAGVPDRFSGSGYGTDFTLTISSVQAEDAAVYFCQQDYNSPPTFGGGTKLEIK
B7: unnamed (protein)
chain 1: QVQLQESGPGLVKPSQTLSLTCTVSGGSISSGDYYWSWIRQPPGKGLEWIGYIYYSGSTDYNPSLKSRVTMSVDTSKNQFSLKVNSVTAADTAVYYCARVSIFGVGTFDYWGQGTLVTVSS
chain 2: EIVMTQSPATLSLSPGERATLSCRASQSVSSYLAWYQQKPGQAPRLLIYDASNRATGIPARFSGSGSGTDFTLTISSLEPEDFAVYYCHQYGSTPLTFGGGTKAEIK
B8: unnamed (protein)
chain 1: QVQLVESGGGVVQPGRSLRLDCKASGITFSNSGMHWVRQAPGKGLEWVAVIWYDGSKRYYADSVKGRFTISRDNSKNTLFLQMNSLRAEDTAVYYCATNDDYWGQGTLVTVSS
chain 2: EIVLTQSPATLSLSPGERATLSCRASQSVSSYLAWYQQKPGQAPRLLIYDASNRATGIPARFSGSGSGTDFTLTISSLEPEDFAVYYCQQSSNWPRTFGQGTKVEIK
B9: unnamed (protein)
chain 1: QVQLVQSGAEVKKPGASVKVSCKASGYTFTSHWMHWVRQAPGQGLEWIGEFNPSNGRTNYNEKFKSKATMTVDTSTNTAYMELSSLRSEDTAVYYCASRDYDYDGRYFDYWGQGTLVTVSS
chain 2: DIQMTQSPSSLSASVGDRVTITCSASSSVTYMYWYQQKPGKAPKLLIYDTSNLASGVPSRFSGSGSGTDYTFTISSLQPEDIATYYCQQWSSHIFTFGQGTKVEIK
B10: unnamed (protein)
chain 1: QVQLVQSGAEVKKPGASVKVSCKVSGYTLTELSIHWVRQAPGKGLEWMGGFDPEENEIVYAQRFQGRVTMTEDTSTDTAYMELSSLRSEDTAVYYCAIVGSFSPLTLGLWGQGTMVTVSS
chain 2: QSVLTQPPSVSGAPGQRVTISCTGSGSNIGAPYDVSWYQQLPGTAPKLLIYHNNKRPSGVPDRFSGSKSGTSASLAITGLQAEDEADYYCATVEAGLSGSVFGGGTKLTVL
B11: unnamed (protein)
chain 1: EVQLVESGGGLVKPGGSLKLSCAASGYTFTSYVMHWVRQAPGKGLEWIGYINPYNDGTKYNEKFQGRVTISSDKSISTAYMELSSLRSEDTAMYYCARGTYYYGTRVFDYWGQGTLVTVSS
chain 2: DIVMTQSPATLSLSPGERATLSCRSSKSLQNVNGNTYLYWFQQKPGQSPQLLIYRMSNLNSGVPDRFSGSGSGTEFTLTISSLEPEDFAVYYCMQHLEYPITFGAGTKLEIK
B12: unnamed (protein)
chain 1: QVQLQQPGAELVEPGGSVKLSCKASGYTFTSHWMHWVKQRPGQGLEWIGEINPSSGRNNYNEKFKSKATLTVDKSSSTAYMQFSSLTSEDSAVYYCVRYYGYDEAMDYWGQGTSVTVSS
chain 2: DIVMTQAAFSNPVTLGTSASISCRSSKSLLHSNGITYLYWYLQKPGQSPQLLIYQMSNLASGVPDRFSSSGSGTDFTLRISRVEAEDVGVYYCAQNLELPYTFGGGTKLEIK
B13: unnamed (protein)
chain 1: QVQLVQSGAEVKKPGASVKVSCKASGFNIKDTYIHWVRQAPGQRLEWMGRIDPANGYTKYDPKFQGRVTITADTSASTAYMELSSLRSEDTAVYYCAREGYYGNYGVYAMDYWGQGTLVTVSS
chain 2: DIQMTQSPSSLSASVGDRVTITCKTSQDINKYMAWYQQTPGKAPRLLIHYTSALQPGIPSRFSGSGSGRDYTFTISSLQPEDIATYYCLQYDNLWTFGQGTKVEIK
B14: unnamed (protein)
chain 1: QVQLVQSGAEVKKPGASVKVSCKAFGYPFTDYLLHWVRQAPGQGLEWVGWLNPYSGDTNYAQKFQGRVTMTRDTSISTAYMELSRLRSDDTAVYYCTRTTLISVYFDYWGQGTMVTVSS
chain 2: DIQMTQSPSSVSASVGDRVTIACRASQNIRNILNWYQQRPGKAPQLLIYAASNLQSGVPSRFSGSGSGTDFTLTINSLQPEDFATYYCQQSYSMPRTFGGGTKLEIK
B15: unnamed (protein)
chain 1: EVQLVESGGGLVKPGGSLKLSCAASGFAFSIYDMSWVRQTPEKCLEWVAYISSGGGTTYYPDTVKGRFTISRDNAKNTLYLQMSSLKSEDTAMYYCARHSGYGTHWGVLFAYWGQGTLVTVSA
chain 2: DIQMTQTTSSLSASLGDRVTISCRASQDISNYLNWYQQKPDGTVKLLIYYTSILHSGVPSRFSGSGSGTDYSLTISNLEQEDFATYFCQQGNTLPWTFGCGTKLEI
B16: unnamed (protein)
chain 1: QVQLVQSGAEVKKPGSSVMVSCQASGGLLEDYIINWVRQAPGQGPEWMGGIIPVLGTVHYGPKFQGRVTITADESTDTAYMELSSLRSEDTAMYYCATETALVVSETYLPHYFDNWGQGTLVTVSS
chain 2: DIQMTQSPSSLSAAVGDRVTITCQASQDIVNYLNWYQQKPGKAPKLLIYVASNLETGVPSRFSGSGSGTDFSLTISSLQPEDVATYYCQQYDNLPLTFGGGTKVEIK
B17: unnamed (protein)
chain 1: QVQLQQSGPELKKPGASVKVSCKDSGYAFSSSWMNWVRQAPGQGLEWIGRIYPGDGDTNYNGKFQGRVTITADKSSSTAYMELSSLRSEDTAVYFCARSGLLRYAMDYWGQGTLVTVSS
chain 2: DIQMTQSPSSLSASVGDRVTITCRASQDIRNYLNWYQQKPGKAVKLLIYYTSRLLPGVPSRFSGSGSGTDYSLTISSQEQEDIGTYFCQQGNTLPWTFGQGTKVEIR
B18: unnamed (protein)
chain 1: QVQLQESGPGLVKPSETLSLTCTVSGFSLLSYGVHWVRQPPGKGLEWLGVIWTGGTTNYNSALMSRFTISKDDSKNTVYLKMNSLKTEDTAIYYCARYYYGMDYWGQGTLVTVSS
chain 2: DIQMTQSPSSLSASVGDRVTITCKASQDVRNTVAWYQQKPGKAPKLLIYSSSYRNTGVPDRFSGSGSGTDFTLTISSLQAEDVAVYYCQQHYITPYTFGGGTKVEIK
B19: unnamed (protein)
chain 1: EVQLVQSGAEVKKPGESLKISCKGSGYIFTNYWIAWVRQMPGKGLESMGIIYPGDSDIRYSPSFQGQVTISADKSITTAYLQWSSLKASDTAMYYCARHDIEGFDYWGRGTLVTVSS
chain 2: EIVLTQSPGTLSLSPGERATLSCRASQSVSSSFFAWYQQKPGQAPRLLIYGASSRATGIPDRLSGSGSGTDFTLTITRLEPEDFAVYYCQQYDSSAITFGQGTRLEIK

This series is described as follows: patients with anti-drug antibodies; higher = more immunogenic.
For B1, the “patients with anti-drug antibodies” value stood at 0%.
On to B2, for which the “patients with anti-drug antibodies” value came to 1.5%.
The figure for B3 is 13%; for B4 it is 29%.
The figure for B5 is 4.2%; for B6 it is 72.5%; for B7 it is 4.1%.
As for B8, the figure is 7.7%.
As for B9, the “patients with anti-drug antibodies” value is 10%.
Take B10: the “patients with anti-drug antibodies” value is 3.1%.
The figure for B11 is 17.5% and 1%; for B12 it is 0%; for B13 it is 9%.
The figure for B14 is 0.9%; for B15 it is 59%.
As for B16, the figure is 28%.
On to B17, for which the “patients with anti-drug antibodies” value is 2.5%.
As for B18, the figure is 21.2%; as for B19, 3.3%.

These data come from the FLAb antibody collection.
